Assay results as given in patent US20230212587A1, “Mutant Hydroxyphenylpyruvate Dioxygenase Polypeptide, Encoding Gene Thereof and Use Therefor” (Beijing Dabeinong Biotechnology Co., Ltd., priority 2019, published 2023).

B1: N5HPPD-02: native Sphingobium sp. N5 HPPD, SEQ ID NO: 171 (protein)
chain: MAADSENPLGLHGFAFAEFTSPDPAAMARQFEQLGFVPAARRKDRGLTLYRQGRIAFILNAGEGEQASAFRAAHGPSANGMAFNVADAKAAHRHAIQSGATDADTAQSALPGTYAIEGIGDSLLYLVDSDPFADWDEVPGWREASAERGVGLDLLDHLTHNVRRGQMRVWSEFYATLFGFEEQKFFDIKGQATGLFSQAMIAPDHEIRIPLNESQDDNSQIEEFIREYNGEGIQHLALTTPDIYSTVEKLRANGVRLQDTIDTYYDLVDERVPGHGEDLARLRKNRILIDGDVHDEGLLLQIFTETMFGPIFFEIIQRKGNEGFGNGNFQVLFESIELDQIRRGVVTVDA
modifications: N5HPPD Amino Acid Sequence (Burkholderia)
B2: N3HPPD-02: native Burkholderia sp. N3 HPPD, SEQ ID NO: 159 (protein)
chain: MQIPNWENPVGTDGFEFIEYTAPDPKALGQLFERMGFTAIARHRHKDVTVYRQGDINFIINAEPHSFAQRFARLHGPSICAIAFRVQDAAKAYQHALELGAWGFDNKTGPMELNIPAIKGIGDSLIYFVDRWRGKNGAQPGAIGDISIYDVDFEPIAGANPNPAGHGLTYIDHLTHNVHRGRMQEWAEFYERLFNFREVRYFDIEGKVTGVKSKAMTSPCGKIRIPINEEGSDTAGQIQEYLDAYHGEGIQHIALGTNDIYGAVDGLRGKEVKLLDTIDTYYELVDRRVPDHGESLDELKKRKILIDGARDDLLLQIFTENQIGPIFFEIIQRKGNQGFGEGNFKALFESIELDQIRRGVVQDKA
modifications: N3HPPD Amino Acid Sequence (Burkholderia)
B3: N4HPPDm-F372A-02: Burkholderia sp. N4 HPPD mutant F372A, SEQ ID NO: 168 (protein)
chain: MQIPNWENPVGTDGFEFIEYTAPDPKALGQLFERMGFTAIARHRHKDVTVYRQGDINFIINAEPDSFAQRFARLHGPSICAIAFRVQDAAKAYQHALELGAWGFDNKTGPMELNIPAIKGIGDSLIYFVDRWRGKNGAQPGAIGDISIYDVDFEPIAGATPNPAGHGLTYIDHLTHNVHRGRMQEWAEFYERLFNFREVRYFDIEGKVTGVKSKAMTSPCGKIRIPINEEGSDTAGQIQEYLDAYHGEGIQHIALGTSDIYGAVDGLRGKEVKLLDTIDTYYELVDRRVPDHGESLDELKKRKILIDGARDDLLLQIATENQIGPIFFEIIQRKGNQGFGEGTFKALFESIELDQIRRGVVQDKA
modifications: N4HPPDm-F372A Amino Acid Sequence
B4: N4HPPD-02: native Burkholderia sp. N4 HPPD, SEQ ID NO: 165 (protein)
chain: MQIPNWENPVGTDGFEFIEYTAPDPKALGQLFERMGFTAIARHRHKDVTVYRQGDINFIINAEPDSFAQRFARLHGPSICAIAFRVQDAAKAYQHALELGAWGFDNKTGPMELNIPAIKGIGDSLIYFVDRWRGKNGAQPGAIGDISIYDVDFEPIAGATPNPAGHGLTYIDHLTHNVHRGRMQEWAEFYERLFNFREVRYFDIEGKVTGVKSKAMTSPCGKIRIPINEEGSDTAGQIQEYLDAYHGEGIQHIALGTSDIYGAVDGLRGKEVKLLDTIDTYYELVDRRVPDHGESLDELKKRKILIDGARDDLLLQIFTENQIGPIFFEIIQRKGNQGFGEGTFKALFESIELDQIRRGVVQDKA
modifications: N4HPPD Amino Acid Sequence (Burkholderia)
B5: N3HPPDm-F372A-02: Burkholderia sp. N3 HPPD mutant F372A, SEQ ID NO: 162 (protein)
chain: MQIPNWENPVGTDGFEFIEYTAPDPKALGQLFERMGFTAIARHRHKDVTVYRQGDINFIINAEPHSFAQRFARLHGPSICAIAFRVQDAAKAYQHALELGAWGFDNKTGPMELNIPAIKGIGDSLIYFVDRWRGKNGAQPGAIGDISIYDVDFEPIAGANPNPAGHGLTYIDHLTHNVHRGRMQEWAEFYERLFNFREVRYFDIEGKVTGVKSKAMTSPCGKIRIPINEEGSDTAGQIQEYLDAYHGEGIQHIALGTNDIYGAVDGLRGKEVKLLDTIDTYYELVDRRVPDHGESLDELKKRKILIDGARDDLLLQIATENQIGPIFFEIIQRKGNQGFGEGNFKALFESIELDQIRRGVVQDKA
modifications: N3HPPDm-F372A Amino Acid Sequence
B6: N2HPPDm-F372A-02: Sphingobium sp. N2 HPPD mutant F372A, SEQ ID NO: 156 (protein)
chain: MTLFDNPLGLDGFEFVEFSAPAKGMLEPVFAAMGFVMIARHRSKDVQLWRQGGINLIANYEPRSPAAYFAAEHGPSACGMGWRVRNAAKAYELAVERGAEPVDVKTGPMELRLPAIRGIGGSIIYLIDRYEDEDGGLSIYDIDFVYEPGVDRHPEGAGFKIIDHLTHNVYGGRMAHWASFYERVFGFREIRYFDIKGEYTGLTSKAMTAPDGKIRIPLNEEGKAGGGQIEEFLRAYNGEGIQHIAFLCDDLIAAWDKLKALGTPLMTAPPATYYEMLDERLPGHGEPVAELQKRGILLDGSTQQGDPRLLLQIAGQATIGPVFFEFIQRKKDEGFGEGNFTALFESMERDQLRRGTLNAGESA
modifications: N2HPPDm-F372A Amino Acid Sequence

Tested on: Arabidopsis thaliana T1 plants
Assay: Topramezone tolerance of transgenic Arabidopsis thaliana T1 plants (pesticide damage grade by bleached leaf area, score, resistance evaluation)
Format: in vivo
Conditions: HPPDs from different species, 7 DAT; for Classification and statistics of pesticide damage grade Grade 0 / Classification and statistics of pesticide damage grade Grade 1 / Classification and statistics of pesticide damage grade Grade 2 / Classification and statistics of pesticide damage grade Grade 3: number of plants (of 16) in this grade; for Scores: score for pesticide damage 0-100
How it was run: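 Herbicide tolerance was judged per plant on a bleaching scale (grade 0 no bleaching to grade 3 fully bleached) 7 DAT. Topramezone doses were 0, 25, 50 and 100 g ai/ha on 18-day-old T1 and wild-type plants.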

Molecule	Classification and statistics of pesticide damage grade Grade 0 (topramezone 25 g ai/ha (1x))	Classification and statistics of pesticide damage grade Grade 1 (topramezone 25 g ai/ha (1x))	Classification and statistics of pesticide damage grade Grade 2 (topramezone 25 g ai/ha (1x))	Classification and statistics of pesticide damage grade Grade 3 (topramezone 25 g ai/ha (1x))	Classification and statistics of pesticide damage grade Grade 0 (topramezone 100 g ai/ha (4x))	Classification and statistics of pesticide damage grade Grade 1 (topramezone 100 g ai/ha (4x))	Classification and statistics of pesticide damage grade Grade 2 (topramezone 100 g ai/ha (4x))	Classification and statistics of pesticide damage grade Grade 3 (topramezone 100 g ai/ha (4x))	Scores (topramezone 25 g ai/ha (1x))	Scores (topramezone 100 g ai/ha (4x))	Resistance evaluation (topramezone 25 g ai/ha (1x))	Resistance evaluation (topramezone 100 g ai/ha (4x))
B1	6	6	4	0	0	7	5	4	21	60	moderately resistant (moderately resistant plants (scores 16-33))	poorly resistant (poorly resistant plants (scores 34-67))
B2	0	6	8	2	0	0	0	16	58	100	poorly resistant (poorly resistant plants (scores 34-67))	non-resistant (non-resistant plants (scores 68-100))
B3	16	0	0	0	12	4	0	0	0	8	highly resistant (highly resistant plants (scores 0-15))	highly resistant (highly resistant plants (scores 0-15))
B4	5	6	5	0	0	8	2	6	33	63	moderately resistant (moderately resistant plants (scores 16-33))	poorly resistant (poorly resistant plants (scores 34-67))
B5	16	0	0	0	12	4	0	0	0	8	highly resistant (highly resistant plants (scores 0-15))	highly resistant (highly resistant plants (scores 0-15))
B6	16	0	0	0	16	0	0	0	0	0	highly resistant (highly resistant plants (scores 0-15))	highly resistant (highly resistant plants (scores 0-15))
